Holding throughout (assay): cell-based or functional assay
Experiment [1] concerns the target human GLP-1 receptor (hGLP-1R) (human, UniProt P43220 24-463).
For experiment [2], the target named is human glucagon receptor (hGCGR) (human, UniProt P47871 26-477).
The target in the next experiment is human glucagon receptor (human, UniProt P47871 26-477).

Starred links: 1 amine or outer side, 2 acyl side, 3 side chain; linkers in the order of their positions; H or OH if unused. Non-standard residues stand in square brackets, D forms with d. Groups on a side chain read outwards from the residue. No end group written: not given here. *: point of attachment. C20 diacid = O=C(O)CCCCCCCCCCCCCCCCCCC(=O)*; C18 diacid = O=C(O)CCCCCCCCCCCCCCCCC(=O)*; γGlu = O=C(O)[C@H](CCC(=O)[*:2])N[*:1]; αMeF = C[C@](N)(Cc1ccccc1)C(=O)O; AEEA = NCCOCCOCC(=O)O; Aib = CC(C)(N)C(=O)O

Sequence of human glucagon receptor (hGCGR) (P47871 26-477): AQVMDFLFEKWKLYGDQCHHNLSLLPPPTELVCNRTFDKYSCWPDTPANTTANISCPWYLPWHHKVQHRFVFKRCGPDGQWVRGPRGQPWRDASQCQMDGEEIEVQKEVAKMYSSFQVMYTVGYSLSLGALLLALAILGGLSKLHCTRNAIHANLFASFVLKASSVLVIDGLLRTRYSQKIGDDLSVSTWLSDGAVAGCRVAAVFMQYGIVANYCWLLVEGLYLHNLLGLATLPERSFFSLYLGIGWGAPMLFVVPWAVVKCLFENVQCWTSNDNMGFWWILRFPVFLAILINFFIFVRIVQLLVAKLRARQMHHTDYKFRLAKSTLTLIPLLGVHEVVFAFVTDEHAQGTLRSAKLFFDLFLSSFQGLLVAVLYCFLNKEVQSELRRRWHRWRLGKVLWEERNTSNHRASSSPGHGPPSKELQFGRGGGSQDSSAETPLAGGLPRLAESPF
Sequence of human glucagon receptor (P47871 26-477): as above

B1: Peptide 147 (peptide)
peptide: H[Aib]QGTFTSDVSK[αMeF]LDSK([AEEA-AEEA-γGlu-C18 diacid])RAQDFVRWLEA[Aib]G-OH
modifications: N-terminus assumed
SMILES: CC(C)C[C@H](NC(=O)[C@H](Cc1c[nH]c2ccccc12)NC(=O)[C@H](CCCNC(=N)N)NC(=O)[C@@H](NC(=O)[C@H](Cc1ccccc1)NC(=O)[C@H](CC(=O)O)NC(=O)[C@H](CCC(N)=O)NC(=O)[C@H](C)NC(=O)[C@H](CCCNC(=N)N)NC(=O)[C@H](CCCCNC(=O)COCCOCCNC(=O)COCCOCCNC(=O)CC[C@H](NC(=O)CCCCCCCCCCCCCCCCC(=O)O)C(=O)O)NC(=O)[C@H](CO)NC(=O)[C@H](CC(=O)O)NC(=O)[C@H](CC(C)C)NC(=O)[C@](C)(Cc1ccccc1)NC(=O)[C@H](CCCCN)NC(=O)[C@H](CO)NC(=O)[C@@H](NC(=O)[C@H](CC(=O)O)NC(=O)[C@H](CO)NC(=O)[C@@H](NC(=O)[C@H](Cc1ccccc1)NC(=O)[C@@H](NC(=O)CNC(=O)[C@H](CCC(N)=O)NC(=O)C(C)(C)NC(=O)[C@@H](N)Cc1c[nH]cn1)[C@@H](C)O)[C@@H](C)O)C(C)C)C(C)C)C(=O)N[C@@H](CCC(=O)O)C(=O)N[C@@H](C)C(=O)NC(C)(C)C(=O)NCC(=O)O
As for B1, the “hGLP-1R EC50 (pM)” value in experiment [1] turned out to be 15.3 pM. Moreover, the “hGluc-R EC50 (pM)” value in experiment [2] is 43.5 pM.

B2: Peptide 148 (peptide)
peptide: H[Aib]QGTFTSDVSK[αMeF]LDSK([AEEA-AEEA-γGlu-C18 diacid])RAQDFVRWIAE[Aib]G-OH
modifications: N-terminus assumed
SMILES: CC[C@H](C)[C@H](NC(=O)[C@H](Cc1c[nH]c2ccccc12)NC(=O)[C@H](CCCNC(=N)N)NC(=O)[C@@H](NC(=O)[C@H](Cc1ccccc1)NC(=O)[C@H](CC(=O)O)NC(=O)[C@H](CCC(N)=O)NC(=O)[C@H](C)NC(=O)[C@H](CCCNC(=N)N)NC(=O)[C@H](CCCCNC(=O)COCCOCCNC(=O)COCCOCCNC(=O)CC[C@H](NC(=O)CCCCCCCCCCCCCCCCC(=O)O)C(=O)O)NC(=O)[C@H](CO)NC(=O)[C@H](CC(=O)O)NC(=O)[C@H](CC(C)C)NC(=O)[C@](C)(Cc1ccccc1)NC(=O)[C@H](CCCCN)NC(=O)[C@H](CO)NC(=O)[C@@H](NC(=O)[C@H](CC(=O)O)NC(=O)[C@H](CO)NC(=O)[C@@H](NC(=O)[C@H](Cc1ccccc1)NC(=O)[C@@H](NC(=O)CNC(=O)[C@H](CCC(N)=O)NC(=O)C(C)(C)NC(=O)[C@@H](N)Cc1c[nH]cn1)[C@@H](C)O)[C@@H](C)O)C(C)C)C(C)C)C(=O)N[C@@H](C)C(=O)N[C@@H](CCC(=O)O)C(=O)NC(C)(C)C(=O)NCC(=O)O
As for B2, in experiment [1], the “hGLP-1R EC50 (pM)” value stood at 40.2 pM. In experiment [2], the “hGluc-R EC50 (pM)” value came out at 568 pM.

B3: Peptide 144 (peptide)
peptide: H[Aib]QGTFTSDVSK[αMeF]LDSK([γGlu-γGlu-AEEA-AEEA-γGlu-γGlu-C18 diacid])RARDFVRWLLE[Aib]G-OH
modifications: N-terminus assumed
SMILES: CC(C)C[C@H](NC(=O)[C@H](Cc1c[nH]c2ccccc12)NC(=O)[C@H](CCCNC(=N)N)NC(=O)[C@@H](NC(=O)[C@H](Cc1ccccc1)NC(=O)[C@H](CC(=O)O)NC(=O)[C@H](CCCNC(=N)N)NC(=O)[C@H](C)NC(=O)[C@H](CCCNC(=N)N)NC(=O)[C@H](CCCCNC(=O)CC[C@H](NC(=O)CC[C@H](NC(=O)COCCOCCNC(=O)COCCOCCNC(=O)CC[C@H](NC(=O)CC[C@H](NC(=O)CCCCCCCCCCCCCCCCC(=O)O)C(=O)O)C(=O)O)C(=O)O)C(=O)O)NC(=O)[C@H](CO)NC(=O)[C@H](CC(=O)O)NC(=O)[C@H](CC(C)C)NC(=O)[C@](C)(Cc1ccccc1)NC(=O)[C@H](CCCCN)NC(=O)[C@H](CO)NC(=O)[C@@H](NC(=O)[C@H](CC(=O)O)NC(=O)[C@H](CO)NC(=O)[C@@H](NC(=O)[C@H](Cc1ccccc1)NC(=O)[C@@H](NC(=O)CNC(=O)[C@H](CCC(N)=O)NC(=O)C(C)(C)NC(=O)[C@@H](N)Cc1c[nH]cn1)[C@@H](C)O)[C@@H](C)O)C(C)C)C(C)C)C(=O)N[C@@H](CC(C)C)C(=O)N[C@@H](CCC(=O)O)C(=O)NC(C)(C)C(=O)NCC(=O)O
Consider B3, for which the “hGLP-1R EC50 (pM)” value in experiment [1] turned out to be 45.2 pM. In addition, the “hGluc-R EC50 (pM)” value in experiment [2] is 702 pM.

B4: Peptide 233 (peptide)
peptide: H[Aib]HGS[αMeF]TSDVSK[αMeF]LDSRAAK([AEEA-AEEA-γGlu-γGlu-C20 diacid])D[αMeF]VQ[Aib]IANTGG-NH2
modifications: N-terminus assumed
SMILES: CC[C@H](C)[C@H](NC(=O)C(C)(C)NC(=O)[C@H](CCC(N)=O)NC(=O)[C@@H](NC(=O)[C@](C)(Cc1ccccc1)NC(=O)[C@H](CC(=O)O)NC(=O)[C@H](CCCCNC(=O)COCCOCCNC(=O)COCCOCCNC(=O)CC[C@H](NC(=O)CC[C@H](NC(=O)CCCCCCCCCCCCCCCCCCC(=O)O)C(=O)O)C(=O)O)NC(=O)[C@H](C)NC(=O)[C@H](C)NC(=O)[C@H](CCCNC(=N)N)NC(=O)[C@H](CO)NC(=O)[C@H](CC(=O)O)NC(=O)[C@H](CC(C)C)NC(=O)[C@](C)(Cc1ccccc1)NC(=O)[C@H](CCCCN)NC(=O)[C@H](CO)NC(=O)[C@@H](NC(=O)[C@H](CC(=O)O)NC(=O)[C@H](CO)NC(=O)[C@@H](NC(=O)[C@](C)(Cc1ccccc1)NC(=O)[C@H](CO)NC(=O)CNC(=O)[C@H](Cc1c[nH]cn1)NC(=O)C(C)(C)NC(=O)[C@@H](N)Cc1c[nH]cn1)[C@@H](C)O)C(C)C)C(C)C)C(=O)N[C@@H](C)C(=O)N[C@@H](CC(N)=O)C(=O)N[C@H](C(=O)NCC(=O)NCC(N)=O)[C@@H](C)O
Turning to B4, the “hGluc-R EC50 (pM), cAMP” value with human glucagon receptor was 407 pM.

B5: Peptide 146 (peptide)
peptide: H[Aib]QGTFTSDVSK[αMeF]LDSK([AEEA-AEEA-γGlu-C18 diacid])RAQDFVRWLASR-OH
modifications: N-terminus assumed
SMILES: CC(C)C[C@H](NC(=O)[C@H](Cc1c[nH]c2ccccc12)NC(=O)[C@H](CCCNC(=N)N)NC(=O)[C@@H](NC(=O)[C@H](Cc1ccccc1)NC(=O)[C@H](CC(=O)O)NC(=O)[C@H](CCC(N)=O)NC(=O)[C@H](C)NC(=O)[C@H](CCCNC(=N)N)NC(=O)[C@H](CCCCNC(=O)COCCOCCNC(=O)COCCOCCNC(=O)CC[C@H](NC(=O)CCCCCCCCCCCCCCCCC(=O)O)C(=O)O)NC(=O)[C@H](CO)NC(=O)[C@H](CC(=O)O)NC(=O)[C@H](CC(C)C)NC(=O)[C@](C)(Cc1ccccc1)NC(=O)[C@H](CCCCN)NC(=O)[C@H](CO)NC(=O)[C@@H](NC(=O)[C@H](CC(=O)O)NC(=O)[C@H](CO)NC(=O)[C@@H](NC(=O)[C@H](Cc1ccccc1)NC(=O)[C@@H](NC(=O)CNC(=O)[C@H](CCC(N)=O)NC(=O)C(C)(C)NC(=O)[C@@H](N)Cc1c[nH]cn1)[C@@H](C)O)[C@@H](C)O)C(C)C)C(C)C)C(=O)N[C@@H](C)C(=O)N[C@@H](CO)C(=O)N[C@@H](CCCNC(=N)N)C(=O)O
As for B5, in experiment [1], the “hGLP-1R EC50 (pM)” value turned out to be 24.6 pM. The “hGluc-R EC50 (pM)” value in experiment [2] worked out at 1630 pM.

B6: Peptide 149 (peptide)
peptide: H[Aib]QGTFTSDVSK[αMeF]LDSK([AEEA-AEEA-γGlu-C18 diacid])RAQDFVRWVVE[Aib]G-OH
modifications: N-terminus assumed
SMILES: CC(C)C[C@H](NC(=O)[C@](C)(Cc1ccccc1)NC(=O)[C@H](CCCCN)NC(=O)[C@H](CO)NC(=O)[C@@H](NC(=O)[C@H](CC(=O)O)NC(=O)[C@H](CO)NC(=O)[C@@H](NC(=O)[C@H](Cc1ccccc1)NC(=O)[C@@H](NC(=O)CNC(=O)[C@H](CCC(N)=O)NC(=O)C(C)(C)NC(=O)[C@@H](N)Cc1c[nH]cn1)[C@@H](C)O)[C@@H](C)O)C(C)C)C(=O)N[C@@H](CC(=O)O)C(=O)N[C@@H](CO)C(=O)N[C@@H](CCCCNC(=O)COCCOCCNC(=O)COCCOCCNC(=O)CC[C@H](NC(=O)CCCCCCCCCCCCCCCCC(=O)O)C(=O)O)C(=O)N[C@@H](CCCNC(=N)N)C(=O)N[C@@H](C)C(=O)N[C@@H](CCC(N)=O)C(=O)N[C@@H](CC(=O)O)C(=O)N[C@@H](Cc1ccccc1)C(=O)N[C@H](C(=O)N[C@@H](CCCNC(=N)N)C(=O)N[C@@H](Cc1c[nH]c2ccccc12)C(=O)N[C@H](C(=O)N[C@H](C(=O)N[C@@H](CCC(=O)O)C(=O)NC(C)(C)C(=O)NCC(=O)O)C(C)C)C(C)C)C(C)C
Regarding B6, in experiment [1], the “hGLP-1R EC50 (pM)” value was found to be 8.71 pM. In experiment [2], the “hGluc-R EC50 (pM)” value was 2650 pM.

B7: Peptide 145 (peptide)
peptide: H[Aib]QGTFTSDVSK[αMeF]LDSK([AEEA-AEEA-γGlu-C18 diacid])RAQDFVRWLASRGI-OH
modifications: N-terminus assumed
SMILES: CC[C@H](C)[C@H](NC(=O)CNC(=O)[C@H](CCCNC(=N)N)NC(=O)[C@H](CO)NC(=O)[C@H](C)NC(=O)[C@H](CC(C)C)NC(=O)[C@H](Cc1c[nH]c2ccccc12)NC(=O)[C@H](CCCNC(=N)N)NC(=O)[C@@H](NC(=O)[C@H](Cc1ccccc1)NC(=O)[C@H](CC(=O)O)NC(=O)[C@H](CCC(N)=O)NC(=O)[C@H](C)NC(=O)[C@H](CCCNC(=N)N)NC(=O)[C@H](CCCCNC(=O)COCCOCCNC(=O)COCCOCCNC(=O)CC[C@H](NC(=O)CCCCCCCCCCCCCCCCC(=O)O)C(=O)O)NC(=O)[C@H](CO)NC(=O)[C@H](CC(=O)O)NC(=O)[C@H](CC(C)C)NC(=O)[C@](C)(Cc1ccccc1)NC(=O)[C@H](CCCCN)NC(=O)[C@H](CO)NC(=O)[C@@H](NC(=O)[C@H](CC(=O)O)NC(=O)[C@H](CO)NC(=O)[C@@H](NC(=O)[C@H](Cc1ccccc1)NC(=O)[C@@H](NC(=O)CNC(=O)[C@H](CCC(N)=O)NC(=O)C(C)(C)NC(=O)[C@@H](N)Cc1c[nH]cn1)[C@@H](C)O)[C@@H](C)O)C(C)C)C(C)C)C(=O)O
Consider B7, for which the “hGLP-1R EC50 (pM)” value in experiment [1] is 22.6 pM. For the same molecule, the “hGluc-R EC50 (pM)” value in experiment [2] came out at 4590 pM.

These data come from patent US20230357348A1 (AstraZeneca / MedImmune, published 2023).
